Reference: patent publication US20180344736A1 (ROCHESTER, published 2018)
One block for each binder: values may come before it.

What was measured:
[1] = biological target: T1, Parkin (endogenous) (human, UniProt O60260 1-465); assay: not told (data not shown)
T1 construct: Endogenous protein immunoprecipitated from cell lysates; also called Endogenous Parkin

[2] = biological target: T2, Cdc20 (human, UniProt Q12834 1-499); assay: IP-immunoblot of transfected cells with or without nocodazole (FIG. 9K)
T2 construct: Protein in cell lysate, co-immunoprecipitation
T2 sequence (Q12834 whole entry): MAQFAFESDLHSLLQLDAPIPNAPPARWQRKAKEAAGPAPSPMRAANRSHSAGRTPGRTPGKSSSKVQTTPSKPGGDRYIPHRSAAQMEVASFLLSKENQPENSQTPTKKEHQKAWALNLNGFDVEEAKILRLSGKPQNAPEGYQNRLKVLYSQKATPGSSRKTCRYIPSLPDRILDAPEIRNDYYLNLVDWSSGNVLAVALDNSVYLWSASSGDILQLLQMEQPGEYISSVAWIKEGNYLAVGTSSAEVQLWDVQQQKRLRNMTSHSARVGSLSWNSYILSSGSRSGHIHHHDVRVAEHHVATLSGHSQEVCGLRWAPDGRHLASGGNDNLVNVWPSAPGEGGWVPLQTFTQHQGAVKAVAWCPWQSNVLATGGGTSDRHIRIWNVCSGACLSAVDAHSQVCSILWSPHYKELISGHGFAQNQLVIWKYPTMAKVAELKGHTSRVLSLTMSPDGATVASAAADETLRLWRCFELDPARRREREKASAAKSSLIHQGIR
Description: (H) Cells were transfected with the indicated plasmids, and then treated with nocodazole. Cell lysates were then blotted with the indicated antibodies. […] (J and K) Cells were treated with chemical (J) or transfected with indicated constructs (K).

[3] = biological target: T3, Cdh1 (human, UniProt Q9UM11 1-496, limits assumed); assay: IP-immunoblot of transfected Parkin domain constructs, mitotic cells (FIG. 10A)
T3 construct: Protein in cell lysate, co-immunoprecipitation
T3 sequence (Q9UM11 whole entry, the tested form may be a part): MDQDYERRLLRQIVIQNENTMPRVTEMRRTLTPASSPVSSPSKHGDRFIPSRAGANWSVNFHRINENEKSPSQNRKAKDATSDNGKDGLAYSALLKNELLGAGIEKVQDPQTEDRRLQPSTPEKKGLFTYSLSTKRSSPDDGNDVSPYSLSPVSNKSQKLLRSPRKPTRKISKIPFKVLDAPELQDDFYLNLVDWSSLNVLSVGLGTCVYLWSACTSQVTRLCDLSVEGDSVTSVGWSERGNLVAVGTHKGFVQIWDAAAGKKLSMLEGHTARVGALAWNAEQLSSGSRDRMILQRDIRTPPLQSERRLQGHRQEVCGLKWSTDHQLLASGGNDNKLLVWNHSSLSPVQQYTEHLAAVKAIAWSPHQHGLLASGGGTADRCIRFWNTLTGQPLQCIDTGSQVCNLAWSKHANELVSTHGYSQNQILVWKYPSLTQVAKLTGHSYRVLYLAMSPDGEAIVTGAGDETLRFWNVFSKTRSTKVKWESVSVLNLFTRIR
Excerpt: Cells were transfected with the indicated plasmids, and mitotic cells were collected for immunoprecipitation (IP)-immunoblot analysis (right).

binding result [1]: no binding
B1: UbcH10 (enzyme, UniProt O00762 2-179, looked up)
chain: ASQNRDPAATSVAAARKGAEPSGGAARGPVGKRLQQELMTLMMSGDKGISAFPESDNLFKWVGTIHGAAGTVYEDLRYKLSLEFPSGYPYNAPTVKFLTPCYHPNVDTQGNICLDILKEKWSALYDVRTILLSIQSLLGEPNIDSPLNTHAAELWKNPTAFKKYLQETYSKQVTSQEP
notes: also called the E2 for APC/C in mitosis

binding result [2]: no binding
B2: Parkin S378A (enzyme, UniProt O60260 1-465, looked up, not shown: large carriers)
chain: MIVFVRFNSSHGFPVEVDSDTSIFQLKEVVAKRQGVPADQLRVIFAGKELRNDWTVQNCDLDQQSIVHIVQRPWRKGQEMNATGGDDPRNAAGGCEREPQSLTRVDLSSSVLPGDSVGLAVILHTDSRKDSPPAGSPAGRSIYNSFYVYCKGPCQRVQPGKLRVQCSTCRQATLTLTQGPSCWDDVLIPNRMSGECQSPHCPGTSAEFFFKCGAHPTSDKETSVALHLIATNSRNITCITCTDVRSPVLVFQCNSRHVICLDCFHLYCVTRLNDRQFVHDPQLGYSLPCVAGCPNSLIKELHHFRILGEEQYNRYQQYGAEECVLQMGGVLCPRPGCGAGLLPEPDQRKVTCEGGNGLGCGFAFCRECKEAYHEGECAAVFEASGTTTQAYRVDERAAEQARWEAASKETIKKTTKPCPRCHVPVEKNGGCMHMKCPQPQCRLEWCWNCGCEWNRVCMGDHWFDV
notes: Transfected construct, IP-immunoblot with or without nocodazole

binding result [3]: no binding
B3: Parkin RING1 domain (other, UniProt O60260 238-293, looked up, not shown: small tags and cut ends)
chain: CITCTDVRSPVLVFQCNSRHVICLDCFHLYCVTRLNDRQFVHDPQLGYSLPCVAGC
notes: domain: RING1
